Results on 1 substance are retold here after patent publication US20110002929A1.

This assay has as its target human RANK-L (human) (UniProt O14788). The assay can be described thus: cell-based or functional assay.

human RANK-L (human), sequence (O14788 140-317 limits assumed): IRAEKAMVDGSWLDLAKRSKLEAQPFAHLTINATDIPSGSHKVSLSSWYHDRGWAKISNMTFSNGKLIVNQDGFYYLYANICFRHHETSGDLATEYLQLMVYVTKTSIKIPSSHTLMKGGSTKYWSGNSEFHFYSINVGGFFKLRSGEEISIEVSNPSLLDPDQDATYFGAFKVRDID

In turn, “osteoprotegerin (from UniProt O00300 22-401) (receptor)” showed an RANK-L induced NF-kappaB activation (luciferase reporter, HEK293T cells), IC50 of 6.03 nM.
